{"source": "paper doi:10.1101/2021.05.06.441046", "key": {"[1]": {"molecular_target": "5P_FL2 spike (six-proline FL2 spike with P986 reverted to K986) (SARS-CoV-2) (UniProt P0DTC2)", "experiment": "negative-stain electron microscopy"}, "[2]": {"molecular_target": "5P_FL2 spike (six-proline FL2 spike with P986 reverted to K986) (SARS-CoV-2) (UniProt P0DTC2)", "experiment": "SEC"}, "[3]": {"molecular_target": "VFLIP_D614G spike (VFLIP variant bearing the D614G mutation) (SARS-CoV-2) (UniProt P0DTC2)", "experiment": "cryo-EM structure"}, "[4]": {"molecular_target": "6P_DS3 spike (six-proline spike with the inter-protomer disulfide Y707C/T883C) (SARS-CoV-2) (UniProt P0DTC2)", "experiment": "non-reducing SDS-PAGE"}, "[5]": {"molecular_target": "6P_DS3 spike (six-proline spike with the inter-protomer disulfide Y707C/T883C) (SARS-CoV-2) (UniProt P0DTC2)", "experiment": "negative-stain electron microscopy"}, "[6]": {"molecular_target": "6P_DS3 spike (six-proline spike with the inter-protomer disulfide Y707C/T883C) (SARS-CoV-2) (UniProt P0DTC2)", "experiment": "SEC"}}, "data": [{"substance": "5P_FL2 spike (six-proline FL2 spike with P986 reverted to K986) (from UniProt P0DTC2) (domain or fragment)", "values": [{"measurement": "stoichiometry N", "setting": "[1]", "value": 3}, {"measurement": "stoichiometry N", "setting": "[2]", "value": 3}]}, {"substance": "VFLIP_D614G spike (VFLIP variant bearing the D614G mutation) (from UniProt P0DTC2) (domain or fragment)", "values": [{"measurement": "stoichiometry N", "setting": "[3]", "value": 3}]}, {"substance": "6P_DS3 spike (six-proline spike with the inter-protomer disulfide Y707C/T883C) (from UniProt P0DTC2 13-1208) (domain or fragment)", "values": [{"measurement": "stoichiometry N", "setting": "[4]", "value": 3}, {"measurement": "stoichiometry N", "setting": "[5]", "value": 3}, {"measurement": "stoichiometry N", "setting": "[6]", "value": 3}]}]}
